T1: LtmA (Ms6479) (Mycobacterium smegmatis mc2155, UniProt A0R6A5 1-189)
T1 sequence: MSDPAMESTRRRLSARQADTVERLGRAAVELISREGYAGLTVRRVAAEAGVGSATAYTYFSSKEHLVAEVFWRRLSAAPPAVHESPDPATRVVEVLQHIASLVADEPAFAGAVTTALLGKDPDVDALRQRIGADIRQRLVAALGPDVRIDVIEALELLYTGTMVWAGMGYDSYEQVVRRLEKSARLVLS


Molecular target: T1, LtmA (Ms6479)
Test: EMSA

Binder | binding result
Ms6484p4 (dsDNA) DNA 1: CTCCGAAACCTCTGGACATGTGTCCAGACTATAGTTTG DNA 2: CAAACTATAGTCTGGACACATGTCCAGAGGTTTCGGAG | binds
Ms6484p5 (dsDNA) DNA 1: CAAACTATAGCAGCTCTCCACCTGACACGGTTTCGGAG DNA 2: CTCCGAAACCGTGTCAGGTGGAGAGCTGCTATAGTTTG | no binding

— article PMC3526308
